From article PMC7972335
Where “and” joins values, the source holds several entries; their conditions need not be identical. Equal values may be shown once.

Assays:
[1] = biological target: trimeric extracellular domain of the S protein of SARS-CoV-2 (SARS-CoV-2) (UniProt P0DTC2); test: cryo-EM structure; S protein incubated with PD of ACE2; three conformations
[2] = biological target: trypsin-digested S protein (extracellular domain of the SARS-CoV-2 S protein cleaved at S1/S2) (SARS-CoV-2); test: cryo-EM structure

With “peptidase domain (PD) of ACE2 (domain or fragment)” the percent of particles in conformation 2 (one PD bound) [1] was 24.4%, the percent of particles in conformation 3 (one PD bound) [1] was 67.7% and the percent of particles in conformation 1 (one PD bound) [2] was 9.5%. For the same substance, the percent of particles in conformation 2 (two PD bound) [2] was 84.5%, the percent of particles in conformation 3 (two PD bound) [2] was 6% and the stoichiometry N (PD per S(p) trimer) [2] was 1 and 2.
